Test results as given in publication PMC13596708.
Where two headings read alike, the source gives them in different places.

What was measured:
Assay in all cases: AlphaScreen or HTRF
[1] = biological target: H4 K12acK16ac nucleosome (human | Xenopus laevis) (UniProt P04908)
[2] = biological target: unmodified nucleosome (human | Xenopus laevis) (UniProt P04908)
[3] = biological target: H4 K12acK16ac nucleosome (human | Xenopus laevis) (UniProt P04908); remark: listed apart in the source
[4] = biological target: unmodified nucleosome (human | Xenopus laevis) (UniProt P04908); remark: listed apart in the source
[5] = biological target: H4 K12acK16ac nucleosome (human | Xenopus laevis) (UniProt P04908); remark: listed apart in the source
[6] = biological target: unmodified nucleosome (human | Xenopus laevis) (UniProt P04908); remark: listed apart in the source
[7] = biological target: H4 K12acK16ac nucleosome (human | Xenopus laevis) (UniProt P04908); remark: listed apart in the source
[8] = biological target: unmodified nucleosome (human | Xenopus laevis) (UniProt P04908); remark: listed apart in the source
[9] = biological target: H4 K12acK16ac nucleosome (human | Xenopus laevis) (UniProt P04908); remark: listed apart in the source
[10] = biological target: unmodified nucleosome (human | Xenopus laevis) (UniProt P04908); remark: listed apart in the source
[11] = biological target: H4 K12acK16ac nucleosome (human | Xenopus laevis) (UniProt P04908); remark: listed apart in the source
[12] = biological target: HIS-tagged BRD4 short isoform (BRD4-S), wild type (human) (UniProt O60885)
[13] = biological target: HIS-tagged BRD4 short isoform (BRD4-S), wild type (human) (UniProt O60885); remark: listed apart in the source

Kd [1]	Kd [2]	Kd [3]	Kd [4]	Kd [5]	Kd [6]	Kd [7]	Kd [8]	Kd [9]	Kd [10]	Kd [11]	IC50 [12]	IC50 after accounting for the 12 nucleosomes per array [12]	IC50 [13]	Substance
26 nM	100 nM	37 nM	43 nM	8 nM	6.6 nM	42 nM	37 nM	18 nM	71 nM	12.2 nM				HIS-tagged BRD4 short isoform (BRD4-S), wild type (from UniProt O60885-2 2-722) (natural protein)
											3.3 nM	40 nM	1.3 nM	12x nucleosome array, unmodified histones (from UniProt P04908 1-130; P06899 1-126) (complex)
											1 nM	12 nM	2.4 nM	12x nucleosome array, H4 K12acK16ac histones (from UniProt P04908 1-130; P06899 1-126; P62799 1-103) (complex)
